Data from the supplement of paper PMC9112550, “Optimization of the antimicrobial peptide Bac7 by deep mutational scanning” (BMC Biology, 2022).

Test system: Escherichia coli TOP10
Experiment: shrunken log2 fold change of peptide-encoding DNA abundance (4.5 h post-induction vs induction); higher = less antimicrobial activity (less host growth inhibition)
Conditions: time post-induction: 4.5 h; library: site-saturation at positions 5, 18, 19, 20
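Also: peptides expressed intracellularly from a pBAD plasmid library in pooled LB shake-flask culture, induced with 0.3% L-arabinose, DNA abundance read by NGS, three biological replicates, DESeq2 with apeglm shrinkage.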

Sequence	shrunken log2 fold change
RRIRQRPPRLPRPRPRPGSGPRP	0.135
RRIRQRPPRLPRPRPRPGSKPRP	-0.00453
RRIRQRPPRLPRPRPRPGSQPRP	-0.161
RRIRQRPPRLPRPRPRPGTIPRP	-0.259
RRIRQRPPRLPRPRPRPGTNPRP	-0.0906
RRIRQRPPRLPRPRPRPGYLPRP	0.0613
RRIRQRPPRLPRPRPRPHCFPRP	-0.111
RRIRQRPPRLPRPRPRPHDDPRP	0.043
RRIRQRPPRLPRPRPRPHDHPRP	-0.0539
RRIRQRPPRLPRPRPRPHDNPRP	1.99
RRIRQRPPRLPRPRPRPHDYPRP	-0.00281
RRIRQRPPRLPRPRPRPHHVPRP	-0.0277
RRIRQRPPRLPRPRPRPHIQPRP	-0.444
RRIRQRPPRLPRPRPRPHKYPRP	-1.21
RRIRQRPPRLPRPRPRPHLIPRP	-0.0982
RRIRQRPPRLPRPRPRPHMAPRP	-0.0694
RRIRQRPPRLPRPRPRPHMRPRP	0.36
RRIRQRPPRLPRPRPRPHMTPRP	-0.391
RRIRQRPPRLPRPRPRPHNIPRP	-0.076
RRIRQRPPRLPRPRPRPHNLPRP	-0.183
RRIRQRPPRLPRPRPRPHPFPRP	-0.29
RRIRQRPPRLPRPRPRPHPMPRP	-0.185
RRIRQRPPRLPRPRPRPHQNPRP	-0.246
RRIRQRPPRLPRPRPRPHRNPRP	0.116
RRIRQRPPRLPRPRPRPHRVPRP	-0.00151

Sequence	shrunken log2 fold change
RRIRQRPPRLPRPRPRPHSGPRP	-0.01
RRIRQRPPRLPRPRPRPHSIPRP	0.0425
RRIRQRPPRLPRPRPRPHVQPRP	-0.46
RRIRQRPPRLPRPRPRPIAHPRP	-0.148
RRIRQRPPRLPRPRPRPIANPRP	-0.0128
RRIRQRPPRLPRPRPRPICMPRP	-0.0553
RRIRQRPPRLPRPRPRPICVPRP	-0.307
RRIRQRPPRLPRPRPRPIEDPRP	-0.126
RRIRQRPPRLPRPRPRPIFFPRP	-0.0319
RRIRQRPPRLPRPRPRPIFHPRP	-0.176
RRIRQRPPRLPRPRPRPIGAPRP	-0.0217
RRIRQRPPRLPRPRPRPIHEPRP	-0.0182
RRIRQRPPRLPRPRPRPIHQPRP	-0.15
RRIRQRPPRLPRPRPRPIIFPRP	-0.271
RRIRQRPPRLPRPRPRPIKFPRP	-0.282
RRIRQRPPRLPRPRPRPIKTPRP	-0.0201
RRIRQRPPRLPRPRPRPIMAPRP	-0.0123
RRIRQRPPRLPRPRPRPIMFPRP	-0.144
RRIRQRPPRLPRPRPRPIMIPRP	-0.452
RRIRQRPPRLPRPRPRPINHPRP	0.147
RRIRQRPPRLPRPRPRPINMPRP	-0.28
RRIRQRPPRLPRPRPRPIPLPRP	-0.182
RRIRQRPPRLPRPRPRPIRKPRP	-0.0469
RRIRQRPPRLPRPRPRPISDPRP	0.0109
RRIRQRPPRLPRPRPRPIVLPRP	-0.132

Sequence	shrunken log2 fold change
RRIRQRPPRLPRPRPRPIYDPRP	-0.213
RRIRQRPPRLPRPRPRPIYHPRP	-0.179
RRIRQRPPRLPRPRPRPIYYPRP	-1.26
RRIRQRPPRLPRPRPRPKACPRP	0.0193
RRIRQRPPRLPRPRPRPKCGPRP	0.354
RRIRQRPPRLPRPRPRPKCPPRP	-0.0714
RRIRQRPPRLPRPRPRPKCWPRP	0.621
RRIRQRPPRLPRPRPRPKDDPRP	-0.0913
RRIRQRPPRLPRPRPRPKDFPRP	-0.00088
RRIRQRPPRLPRPRPRPKDLPRP	-0.0616
RRIRQRPPRLPRPRPRPKDPPRP	-0.000135
RRIRQRPPRLPRPRPRPKDQPRP	0.0983
RRIRQRPPRLPRPRPRPKEIPRP	-0.223
RRIRQRPPRLPRPRPRPKFEPRP	-0.0683
RRIRQRPPRLPRPRPRPKFPPRP	0.118
RRIRQRPPRLPRPRPRPKHPPRP	-0.0928
RRIRQRPPRLPRPRPRPKHQPRP	-0.386
RRIRQRPPRLPRPRPRPKIFPRP	0.041
RRIRQRPPRLPRPRPRPKIIPRP	-0.367
RRIRQRPPRLPRPRPRPKMFPRP	0.106
RRIRQRPPRLPRPRPRPKMIPRP	-0.231
RRIRQRPPRLPRPRPRPKNIPRP	-0.652
RRIRQRPPRLPRPRPRPKPLPRP	0.176
RRIRQRPPRLPRPRPRPKPQPRP	-0.0342
RRIRQRPPRLPRPRPRPKQFPRP	0.102

Sequence	shrunken log2 fold change
RRIRQRPPRLPRPRPRPKSWPRP	0.19
RRIRQRPPRLPRPRPRPKTLPRP	-0.156
RRIRQRPPRLPRPRPRPKWMPRP	-0.131
RRIRQRPPRLPRPRPRPKWVPRP	0.0809
RRIRQRPPRLPRPRPRPLARPRP	0.26
RRIRQRPPRLPRPRPRPLCNPRP	-0.178
RRIRQRPPRLPRPRPRPLEMPRP	0.155
RRIRQRPPRLPRPRPRPLEYPRP	-0.082
RRIRQRPPRLPRPRPRPLFMPRP	-1.12
RRIRQRPPRLPRPRPRPLINPRP	-0.305
RRIRQRPPRLPRPRPRPLLRPRP	-0.0709
RRIRQRPPRLPRPRPRPLMFPRP	-0.137
RRIRQRPPRLPRPRPRPLNHPRP	0.133
RRIRQRPPRLPRPRPRPLNIPRP	-0.315
RRIRQRPPRLPRPRPRPLNPPRP	-0.303
RRIRQRPPRLPRPRPRPLNQPRP	-0.155
RRIRQRPPRLPRPRPRPLPIPRP	0.231
RRIRQRPPRLPRPRPRPLPPPRP	1.09
RRIRQRPPRLPRPRPRPLPTPRP	0.131
RRIRQRPPRLPRPRPRPLPYPRP	-0.202
RRIRQRPPRLPRPRPRPLRFPRP	-0.041
RRIRQRPPRLPRPRPRPLRKPRP	0.356
RRIRQRPPRLPRPRPRPLRTPRP	0.691
RRIRQRPPRLPRPRPRPLSNPRP	-0.109
RRIRQRPPRLPRPRPRPLSTPRP	0.175

Sequence	shrunken log2 fold change
RRIRQRPPRLPRPRPRPLTDPRP	0.132
RRIRQRPPRLPRPRPRPLTGPRP	-0.0104
RRIRQRPPRLPRPRPRPLVCPRP	0.0584
RRIRQRPPRLPRPRPRPLWFPRP	-0.0512
RRIRQRPPRLPRPRPRPLYYPRP	0.614
RRIRQRPPRLPRPRPRPMCGPRP	0.31
RRIRQRPPRLPRPRPRPMCKPRP	-0.0652
RRIRQRPPRLPRPRPRPMDIPRP	-0.155
RRIRQRPPRLPRPRPRPMEIPRP	-0.0109
RRIRQRPPRLPRPRPRPMFEPRP	0.118
RRIRQRPPRLPRPRPRPMFKPRP	-0.572
RRIRQRPPRLPRPRPRPMGNPRP	-0.136
RRIRQRPPRLPRPRPRPMHFPRP	0.169
RRIRQRPPRLPRPRPRPMIVPRP	0.000655
RRIRQRPPRLPRPRPRPMLAPRP	0.0967
RRIRQRPPRLPRPRPRPMLNPRP	0.014
RRIRQRPPRLPRPRPRPMMGPRP	-0.107
RRIRQRPPRLPRPRPRPMNSPRP	-0.468
RRIRQRPPRLPRPRPRPMPDPRP	-0.0292
RRIRQRPPRLPRPRPRPMSLPRP	-0.13
RRIRQRPPRLPRPRPRPMSRPRP	-0.0221
RRIRQRPPRLPRPRPRPMVGPRP	-0.00963
RRIRQRPPRLPRPRPRPMVMPRP	0.0852
RRIRQRPPRLPRPRPRPMYEPRP	-0.01
RRIRQRPPRLPRPRPRPMYNPRP	-0.545

Sequence	shrunken log2 fold change
RRIRQRPPRLPRPRPRPMYSPRP	-0.746
RRIRQRPPRLPRPRPRPNAWPRP	0.0879
RRIRQRPPRLPRPRPRPNCDPRP	0.0233
RRIRQRPPRLPRPRPRPNCIPRP	0.133
RRIRQRPPRLPRPRPRPNCSPRP	-0.0334
RRIRQRPPRLPRPRPRPNDEPRP	0.0763
RRIRQRPPRLPRPRPRPNDRPRP	-0.16
RRIRQRPPRLPRPRPRPNELPRP	-0.24
RRIRQRPPRLPRPRPRPNEVPRP	-0.00511
RRIRQRPPRLPRPRPRPNFHPRP	-0.232
RRIRQRPPRLPRPRPRPNHYPRP	-0.36
RRIRQRPPRLPRPRPRPNITPRP	-0.495
RRIRQRPPRLPRPRPRPNKWPRP	-0.0433
RRIRQRPPRLPRPRPRPNLGPRP	0.0673
RRIRQRPPRLPRPRPRPNMLPRP	-0.285
RRIRQRPPRLPRPRPRPNMNPRP	-0.528
RRIRQRPPRLPRPRPRPNNAPRP	-0.216
RRIRQRPPRLPRPRPRPNQWPRP	0.0886
RRIRQRPPRLPRPRPRPNSYPRP	-0.225
RRIRQRPPRLPRPRPRPNTPPRP	-0.0687
RRIRQRPPRLPRPRPRPNTRPRP	-0.0754
RRIRQRPPRLPRPRPRPNTSPRP	-0.292
RRIRQRPPRLPRPRPRPNWMPRP	0.0507
RRIRQRPPRLPRPRPRPNWSPRP	0.148
RRIRQRPPRLPRPRPRPNYMPRP	-0.226
